Measurements reported in patent publication US20200317776A1 (published 2020).
Positions count from the first letter of the chain named. Numbers in names are those of the source. Where two headings read alike, the source gives them in different places. Values belong to the binder of their own block, whether it stands above or below them.

What was measured:
[1] = biological target: T1, human TREM2 Fc fusion (entire TREM2 ECD; only one Fc arm fused to TREM2) (human, UniProt Q9NZC2 19-174); experiment: BLI, IgG, avid
T1 construct: also called huTREM2-Fc; recombinant hTREM2
T1 sequence: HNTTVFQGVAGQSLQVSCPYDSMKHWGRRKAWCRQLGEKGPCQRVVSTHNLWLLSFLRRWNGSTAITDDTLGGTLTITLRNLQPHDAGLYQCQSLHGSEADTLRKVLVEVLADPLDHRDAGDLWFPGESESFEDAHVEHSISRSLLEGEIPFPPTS
In short: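 Avid format: AHQ-loaded IgGs exposed to 100 nM human or cyno TREM2-Fc antigen, 3 min association, 3 min dissociation in buffer. Monovalent format: human TREM2-Fc loaded on AHQ sensors, exposed to 100 nM Fab. Kinetics fit to 1:1 model, run at 25° C.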

[2] = biological target: T2, cynomolgus monkey TREM2 Fc fusion (entire TREM2 ECD; only one Fc arm fused to TREM2) (cynomolgus monkey, UniProt Q9NZC2 19-174 (human entry)); experiment: BLI, Fab, monovalent
T2 construct: also called cyno TREM2-Fc
T2 chain: T1 sequence with A10E, W60R, L89F, F125V

[3] = biological target: T3, human TREM2 expressed on cells (human, UniProt Q9NZC2 19-230); experiment: FACS, hTREM2 BW cells
T3 construct: BW5147.G.1.4 cells stably expressing human TREM2 together with Dap12, or endogenous TREM2 of primary human myeloid cells; also called huT2 BW; hTREM2 expressing cell line
T3 sequence: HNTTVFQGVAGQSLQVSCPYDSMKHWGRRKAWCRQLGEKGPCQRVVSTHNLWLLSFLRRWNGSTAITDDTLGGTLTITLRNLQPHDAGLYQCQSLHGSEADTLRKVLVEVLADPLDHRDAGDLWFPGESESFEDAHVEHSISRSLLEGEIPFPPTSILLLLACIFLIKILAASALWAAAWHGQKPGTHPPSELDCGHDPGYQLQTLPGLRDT
In short: (§1)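 Cells were BW5147.G.1.4 stably expressing human TREM2 with Dap12, or human monocyte-derived dendritic cells differentiated 6 days with GM-CSF and IL-4. Antibodies bound 1 h on ice in PBS+2% FBS, then PE anti-human secondary 30 min on ice; flow cytometry read-out as mean fluorescence intensity.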

[4] = biological target: T3, human TREM2 expressed on cells; experiment: FACS, hTREM2 BW cells; remark: listed apart in the source
[5] = biological target: T3, human TREM2 expressed on cells; experiment: cell-based or functional assay
[6] = biological target: T4, human TREM2/DAP12 fusion protein (human, UniProt O43914 41-113, limits assumed); experiment: cell-based or functional assay
[7] = biological target: T4, human TREM2/DAP12 fusion protein; experiment: cell-based or functional assay; remark: listed apart in the source
[8] = biological target: T4, human TREM2/DAP12 fusion protein; experiment: cell-based or functional assay; remark: listed apart in the source
[9] = biological target: T4, human TREM2/DAP12 fusion protein; experiment: cell-based or functional assay; remark: listed apart in the source
[10] = biological target: T3, human TREM2 expressed on cells; experiment: FACS, hTREM2 expressing cell line
[11] = biological target: T3, human TREM2 expressed on cells; experiment: FACS, human DCs
In short: as §1

[12] = biological target: T1, human TREM2 Fc fusion (entire TREM2 …); experiment: BLI, Fab, monovalent
[13] = biological target: T3, human TREM2 expressed on cells; experiment: cell-based or functional assay; remark: listed apart in the source
[14] = biological target: T4, human TREM2/DAP12 fusion protein; experiment: cell-based or functional assay; remark: listed apart in the source
[15] = biological target: T1, human TREM2 Fc fusion (entire TREM2 …); experiment: BLI
[16] = biological target: T3, human TREM2 expressed on cells; experiment: FACS, hTREM2 BW cells; remark: listed apart in the source
[17] = biological target: T4, human TREM2/DAP12 fusion protein; experiment: cell-based or functional assay; remark: listed apart in the source
[18] = biological target: T3, human TREM2 expressed on cells; experiment: cell-based or functional assay; remark: listed apart in the source
mouse TREM2 = biological target: T5, mouse TREM2 (mouse, UniProt Q99NH8 19-227); experiment: no effect on Dap12 phosphorylation in WT mice
T5 construct: Endogenous TREM2 of wild-type mice (peritoneal macrophages); also called murine TREM2
T5 sequence: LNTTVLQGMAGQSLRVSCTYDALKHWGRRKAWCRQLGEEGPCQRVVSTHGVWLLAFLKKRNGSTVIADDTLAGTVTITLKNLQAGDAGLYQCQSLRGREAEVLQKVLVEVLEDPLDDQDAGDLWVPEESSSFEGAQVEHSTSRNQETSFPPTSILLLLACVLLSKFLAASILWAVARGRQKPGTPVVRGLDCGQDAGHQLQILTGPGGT

[19] = biological target: T4, human TREM2/DAP12 fusion protein; experiment: cell-based or functional assay; remark: listed apart in the source

B2: AL2p (parental mouse anti-TREM2 antibody) (antibody, V domains shown)
VH: QVQLQQSGPELVKPGASLKISCKASGYAFSSSWMNWVKQRPGKGLEWIGRIYPGDGDTNYNGEFRVRATLTADTSSTTAYMQLSSLTSEDSAVYFCARLLRNQPGESYAMDYWGQGASVTVSS
VL: DVVMTQTPLSLPVSLGDQASISCRSSQSLVHSNGYTYLHWYLQKPGQSPKLLIYKVSNRFSGVPDRFSGSGSGTDFTLKISRVEADDLGVYFCSQSTRVPYTFGGGTKLEIK
notes: Parental mouse antibody; Fab and IgG formats under one id; also called 9F5; 9F5a
luciferase activation, soluble IgG, EC50 [8]: 19.3 nM | Reporter assay soluble IgG (EC50, nM) [9]: 19 nM | Kd [10]: 3.04 nM

B4: AL2p-47 (antibody, V domains shown)
VH: QVQLVQSGAEVKKPGSSVKVSCKASGYAFSSDWMNWVRQAPGQGLEWMGRIYPGEGDTNYARKFHGRVTITADESTSTAYMELSSLRSEDTAVYYCARLLRNKPGESYAMDYWGQGTLVTVSS
VL: DVVMTQTPLSLSVTPGQPASISCRTSQSLVHSNAYTYLHWYLQKPGQSPQLLIYKVSNRVSGVPDRFSGSGSGTDFTLKISRVEAEDVGVYYCSQSTRVPYTFGQGTKLEIK
notes: Fab and IgG formats under one id (explicit huIgG1 is m97); also called AL2-47
fold improvement in affinity (KD) vs AL2p [15]: ~10 fold | MFI [11]: 372 MFI | Kd [12]: 14.8 nM | Kd [2]: 16.3 nM | Kd [3]: 1.09 nM | DC viability (AUC) [13]: 771000 AUC | Mac viability (AUC) [13]: 22100 AUC | BW Luc assay plate bound 7.3 nM IgG, FOC [14]: 3.54 FOC | BW Luc assay soluble 7.3 nM IgG, FOC [14]: 3.48 FOC | luciferase activation, plate bound IgG, EC50 [8]: 206 nM | luciferase activation, soluble IgG, EC50 [8]: 104 nM | Reporter assay plate bound IgG (EC50, nM) [9]: 206 nM | Reporter assay soluble IgG (EC50, nM) [9]: 105 nM | Kd [10]: 1.22 nM

B5: AL2p-58 (antibody, V domains shown)
VH: B4 VH with S16A, D32Q, G44R, M48I, E55G, R62G, H65Q, E74T, T76A, K103Q
VL: DVVMTQSPDSLAVSLGERATINCRSSQSLVHSNRYTYLHWYQQKPGQSPKLLIYKVSNRFSGVPDRFSGSGSGTDFTLKISRVEAEDVGVYYCSQSTRVPYTFGQGTKLEIK
notes: Fab and IgG formats under one id (explicit huIgG1 is m95, PSEG is m96)
fold improvement in affinity (KD) vs AL2p [15]: ~10 fold | Kd [12]: 13.3 nM | Kd [2]: 12.4 nM | Kd [3]: 0.51 nM | luciferase activation, plate bound IgG, EC50 [8]: 36 nM | luciferase activation, soluble IgG, EC50 [8]: 14 nM | Reporter assay plate bound IgG (EC50, nM) [9]: 36.1 nM | Reporter assay soluble IgG (EC50, nM) [9]: 14 nM | Kd [10]: 0.51 nM

B7: AL2p-58 huIgG1 (antibody)
heavy: not shown
light: DVVMTQSPDSLAVSLGERATINCRSSQSLVHSNRYTYLHWYQQKPGQSPKLLIYKVSNRFSGVPDRFSGSGSGTDFTLKISRVEAEDVGVYYCSQSTRVPYTFGQGTKLEIKRTVAAPSVFIFPPSDEQLKSGTASVVCLLNNFYPREAKVQWKVDNALQSGNSQESVTEQDSKDSTYSLSSTLTLSKADYEKHKVYACEVTHQGLSSPVTKSFNRGEC
notes: also called AL2p-58 huIgG1 WT
Bmax (MFI) [16]: 196000 MFI | Kd [16]: 0.63 nM | Plate bound IgG, fold over unstimulated control (25 nM IgG) [17]: 9.88 fold | Soluble IgG, EC50 [17]: 4.83 nM | Soluble IgG, fold over control IgG (17 nM IgG) [17]: 9.97 fold | EC50 viability, dendritic cells D558 [18]: 0.288 nM | EC50 viability, dendritic cells D559 [18]: 0.341 nM | EC50 viability, dendritic cells D560 [18]: 0.271 nM | EC50 viability, macrophages D558 [18]: 0.005 nM | EC50 viability, macrophages D559 [18]: 0.359 nM | EC50 viability, macrophages D560 [18]: 0.469 nM | binding result (mouse TREM2): no binding

More lines, main results first:

Kd [1]: 1.19 nM | Kd [2]: 4580 nM | Kd [3]: 2.3 nM | Kd [4]: 2.3 nM | Luciferase activation plate bound 33 nM IgG, FOC [6]: 6.03 FOC | Luciferase activation soluble 10 nM IgG, FOC [6]: 1.29 FOC | luciferase activation, soluble IgG, EC50 [7]: 50 nM
B1: AL2p-3 (antibody, V domains shown)
VH: B4 VH with D32S, R62Q, H65Q, K103Q
VL: B4 VL with T25S, A34G, V60F
notes: AL2p-h50 variant; Fab and IgG formats under one id
Survival huDCs plate bound IgG, AUC [5]: 363000 AUC

Kd [1]: 0.317 nM | MFI [11]: 288 MFI | Kd [12]: 4.03 nM | Kd [2]: 3.44 nM | Kd [3]: 1 nM | Kd [4]: 1.23 nM | Luciferase activation plate bound 33 nM IgG, FOC [6]: 28.2 FOC | Luciferase activation soluble 10 nM IgG, FOC [6]: 2.83 FOC | luciferase activation, soluble IgG, EC50 [7]: 6.92 nM | BW Luc assay plate bound 7.3 nM IgG, FOC [14]: 7.49 FOC | BW Luc assay soluble 7.3 nM IgG, FOC [14]: 4.48 FOC | luciferase activation, plate bound IgG, EC50 [8]: 10.1 nM | luciferase activation, soluble IgG, EC50 [8]: 1.14 nM | Reporter assay plate bound IgG (EC50, nM) [9]: 10.1 nM | Reporter assay soluble IgG (EC50, nM) [9]: 11.4 nM | Kd [10]: 0.56 nM
B3: AL2p-31 (antibody, V domains shown)
VH: B4 VH with D32Q, E55G, H65Q, K103Q
VL: B4 VL with D1G, T25S, A34G, V60R
notes: Fab and IgG formats under one id
Survival huDCs plate bound IgG, AUC [5]: 1.21e+06 AUC | DC viability (AUC) [13]: 860000 AUC | Mac viability (AUC) [13]: 83700 AUC

Kd [1]: 1.06 nM | Kd [12]: 259 nM | Kd [2]: 1150 nM | Kd [3]: 4.2 nM | Kd [4]: 4.2 nM | Luciferase activation plate bound 33 nM IgG, FOC [6]: 5.39 FOC | Luciferase activation soluble 10 nM IgG, FOC [6]: 1.2 FOC | luciferase activation, soluble IgG, EC50 [7]: 38.6 nM
B6: AL2p-6 (antibody, V domains shown)
VH: B4 VH with D32S, E55D, R62Q, H65Q, K103Q
VL: B4 VL with T25S, A34W, V60F
notes: as for B1
Survival huDCs plate bound IgG, AUC [5]: 547000 AUC

plate bound signal activation, fold over AL2p [19]: ~10 fold over AL2p | Bmax (MFI) [16]: 140000 MFI | Kd [16]: 0.36 nM | Plate bound IgG, fold over unstimulated control (25 nM IgG) [17]: 12.9 fold | Soluble IgG, EC50 [17]: 2.99 nM | Soluble IgG, fold over control IgG (17 nM IgG) [17]: 12.1 fold
B8: AL2p-58 huIgG1 PSEG (antibody)
heavy: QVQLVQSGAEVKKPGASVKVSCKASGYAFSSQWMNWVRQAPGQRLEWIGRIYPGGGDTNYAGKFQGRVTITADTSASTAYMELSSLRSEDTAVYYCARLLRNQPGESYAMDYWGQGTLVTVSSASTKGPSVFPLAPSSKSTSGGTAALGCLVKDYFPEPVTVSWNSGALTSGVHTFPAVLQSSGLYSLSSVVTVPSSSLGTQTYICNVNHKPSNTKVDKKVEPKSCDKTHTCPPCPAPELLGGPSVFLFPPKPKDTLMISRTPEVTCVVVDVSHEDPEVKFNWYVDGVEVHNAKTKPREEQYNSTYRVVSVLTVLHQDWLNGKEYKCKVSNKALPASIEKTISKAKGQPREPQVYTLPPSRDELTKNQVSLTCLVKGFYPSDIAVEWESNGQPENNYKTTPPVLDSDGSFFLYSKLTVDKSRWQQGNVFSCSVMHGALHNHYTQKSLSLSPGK
light: B7 light
notes: IgG1 with P331S and E430G; also called AL2p-58 PSEG
EC50 viability, dendritic cells D558 [18]: 0.206 nM | EC50 viability, dendritic cells D559 [18]: 0.276 nM | EC50 viability, dendritic cells D560 [18]: 0.206 nM | EC50 viability, macrophages D558 [18]: 0.001 nM | EC50 viability, macrophages D559 [18]: 0.322 nM | EC50 viability, macrophages D560 [18]: 0.426 nM
